Experimental data taken from article PMC9143595.

B1: RBD-1C (CoV2-RBD-1) (ssDNA)
DNA: CAGCACCGACCTTGTGCTTTGGGAGTGCTGGTCCAAGGGCGTTAATGGACA
modifications: 5'-amino-modifier C6
B2: RBD-1CM2 (ssDNA)
DNA: CAGCACCGACCTTGTGCTTTGGGAGTGCTGGTCCAAGGGCCTTGATGGACA
modifications: 5'-amino-modifier C6
B3: RBD-1CM1 (ssDNA)
DNA: CAGCACCGACCTTGTGCTTTGGGAGTGCTGGTCTAAGGGCGTTAATAGACA
modifications: 5'-amino-modifier C6

These binders were tested against SARS-CoV-2 spike protein S1 subunit (SARS-CoV-2, UniProt P0DTC2 14-685) (assay: QCM). Details: protein: commercial.
With B1 the Ka was 1 10^5 M-1.
B2 was tested, and the Ka was 1.2 10^5 M-1.
B3 was tested, and the Ka was 1.2 10^5 M-1.
